Reference: patent US20260217845A1 (published 2026)
Blank lines part the entries; values can stand above or below the binder they belong to.

Key:
[1] = molecular target: T1, human TNFR2 (extracellular domain) (UniProt P20333 23-257); experiment: SPR
T1 chain: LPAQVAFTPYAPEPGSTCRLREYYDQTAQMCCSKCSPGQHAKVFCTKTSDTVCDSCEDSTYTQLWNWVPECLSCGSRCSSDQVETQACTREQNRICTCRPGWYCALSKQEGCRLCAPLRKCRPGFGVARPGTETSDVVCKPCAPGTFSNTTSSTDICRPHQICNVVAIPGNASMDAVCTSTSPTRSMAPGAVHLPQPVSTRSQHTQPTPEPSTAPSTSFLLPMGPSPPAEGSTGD

[2] = molecular target: T1, human TNFR2 (extracellular domain); experiment: binding affinity
[3] = molecular target: T1, human TNFR2 (extracellular domain); experiment: SPR
[4] = molecular target: T1, human TNFR2 (extracellular domain); experiment: SPR
[5] = molecular target: T1, human TNFR2 (extracellular domain); experiment: SPR
[6] = molecular target: T1, human TNFR2 (extracellular domain); experiment: binding affinity; marked * on sheet
[7] = molecular target: T1, human TNFR2 (extracellular domain); experiment: SPR

B3: ODY-31D6 (VHH)
VHH: EVQLVESGGGLVQAGGSLRLSCAASGSIVSTNGMGWHRQVPGKGRELVAGIRSDGFTNYADSVKGRFTISSDNVKNTVYLQMNSLKAEDSGVYFCYYQALSSPNYGQTFWGQGTQVTVSS
- Kd [4]: 19 nM
- Kd [2]: 19 nM

B4: ODY-35A10 (VHH)
VHH: EVQLVESGGGLVEAGGSLRLSCAASGRTFGSYTMGWFRQAPGREQEFLASIRRTGGSTSYADSVKGRFTISRDNAKKAVYLQMNSLKPEDTAVYYCAAAPTGRAFTYWGQGTQVTVSS
- Kd [5]: 48 nM
- Kd [6]: 48 nM

Further binders by falling Kd [2], results first:

- Kd [7]: 13 nM
- Kd [2]: 13 nM
B5: ODY-37C7 (VHH)
VHH: EVQLVESGGGLVQPGGSLRLSCAASGFTFDDIAMTWVRQAPGKGLEWVSSIYSYGPNTYYADSVKGRFTISTDSAKNTLYLQMNSLKPEDTAVYYCAADSDLSTVVVGPHDYWGQGTQVTVSS

- Kd [1]: 7.9 nM
- Kd [2]: 7.9 nM
B1: ODY-31G3 (VHH)
VHH: EVQLVESGGGLVQAGGSLRVSCAASGSIFRADAMGWHRQVPGKPREFVAGIRSDGFTNYAEAVKGRFTISWDTVKNTVYLQMNSLKPEDTAVYTCYYQSLSSPNYGQVFWGQGTQVTVSS

- Kd [3]: 5.6 nM
- Kd [2]: 5.6 nM
B2: ODY-33D4 (VHH)
VHH: EVQLVESGGGLVQAGGSLRLSCAASGRTFSDYGMGWFRQAPGKDSEFVAAINWSNGRTNYADSVKGRFTISRDNAKNTGYLEMNSLKVEDTAVYYCAATPSGKAYSYWGQGTQVTVSS
